Source: the RNAGym collection of RNA variant scans (doi:10.7554/elife.80360)

B1: CPEB3 Ribozyme (parent)
chain: GGGGGCCACAGCAGAAGCGUUCACGUCGCGGCCCCUGUCAGAUUCUGGUGAAUCUGCGAAUUCUGCUGU

Variants of: B1
Assay: self-cleavage, relative activity (ratio to wild type); higher = more cleavage; co-transcriptional

Variant	self-cleavage
U20C G28U	0.208
G19A U53C	0.15
G19A U53G	0.18
U20A A40C	0.188
U20A A40U	0.0825
G19A U36C	0.161
U20A U43A	0.152
G19A G47U	0.12
G19A G47A	0.122
G19A G50U	0.133
G19C A59U	0.185
G19C A59C	0.0891
U20C A51C	0.259
U20C A51U	0.172
C18U C24U	0.4
U20G C66G	0.15
U20G C66A	0.23
U20A G37U	0.169
G19U U21G	0.159
G19U U21A	0.31
U20A A59U	0.106
C18U U64C	0.383
C18U U64A	0.351
G19A C29A	0.159

Variant	self-cleavage
U20C U55G	0.203
U20C U55C	0.139
U20A C33U	0.2
U20A C33G	0.192
U20A C33A	0.166
U20A G48C	0.117
U20A G48U	0.104
U20C A40C	0.215
U20C A40U	0.227
G19U G30C	0.186
G19A C54G	0.159
G19U C45A	0.459
U20G U43G	0.153
G19C U69A	0.147
U20C C29G	0.165
U20A U21G	0.2
U20A U21A	0.219
U20G U26A	0.163
U20G U26G	0.123
G19C G58A	0.162
U20C C22A	0.201
G19U G56U	0.281
C18U C34U	0.919
C18U C34G	0.426

Variant	self-cleavage
C18U G56C	0.341
C18U G56U	0.578
G19C U62C	0.123
G19C U62A	0.107
G19A U62C	0.231
G19C C63A	0.144
G19C C63G	0.204
G19C C63U	0.135
U20G G28U	0.161
G19U U38C	0.252
C18U C39G	0.491
U20A C54A	0.125
U20G U64G	0.117
U20G U64A	0.152
U20G U21C	0.166
C18U G28U	0.206
C18U G28C	0.174
U20A G47C	0.261
U20A G47U	0.179
G19C U67C	0.203
G19C A40C	0.0886
U21A C29A	0.686
G19A A59U	0.169
G19C G50C	0.148

Variant	self-cleavage
G19C C39U	0.158
G19C C39G	0.162
U20C U53A	0.135
U20C U53G	0.167
U20C U67C	0.131
G19A A40G	0.17
U20C U36C	0.159
U20C U36G	0.116
C18U C57U	0.3
U21A C32A	0.808
G19A U26G	0.19
G19A U26C	0.0939
U20C C27A	0.17
G19U C57A	0.224
U20A G58C	0.164
U20G G68U	0.183
U20G U46G	0.189
G19C U61A	0.216
U20A C35U	0.124
U21A A59U	0.891
G19A C45U	0.167
G19A C45A	0.121
G19C C29U	0.112
G19A U38G	0.156

Variant	self-cleavage
G19A C39G	0.149
G19C U44C	0.164
U20A G50A	0.147
G19A G58A	0.132
U20A C39G	0.251
G19C U43C	0.134
G19C U43G	0.122
U20G C22U	0.141
G19A A42C	0.13
G19A A42G	0.166
U20G U44A	0.271
U20G U44C	0.199
U20C A42C	0.199
U20C A42U	0.271
G19C C57U	0.146
C18U U43A	0.549
U20C U69G	0.394
G19U G48A	0.673
G19U G48C	0.699
U20A A23G	0.041
U20A A23U	0.192
U20G G30U	0.191
U20G G30C	0.212
U20G A51U	0.219

Variant	self-cleavage
U20G A51C	0.27
U20G U69A	0.264
U21A C27G	0.222
G19C A42C	0.153
G19C A42G	0.11
G19C A42U	0.173
U20A U69A	0.181
C18U U62G	0.494
G19U C24A	0.153
G19U C24U	0.169
G19U U55A	0.209
G19U U55G	0.127
G19A G48C	0.188
U20C G68C	0.211
U20C G68U	0.195
C18U U26A	0.669
U20G C63A	0.157
G19U U36C	0.212
G19U U36A	0.164
U20C C66G	0.179
G19C C22U	0.158
U20G U61A	0.207
G19U G28C	0.125
U20G C33U	0.145

Variant	self-cleavage
U20G C34A	0.223
G19U U20G	0.139
G19U U53C	0.242
G19U U53A	0.273
G19U U53G	0.252
G19C U46G	0.122
G19A U20C	0.166
G19A U20A	0.145
C18U C29G	0.132
G19C G48C	0.169
G19C G48U	0.141
G19C G48A	0.189
C18U C45G	0.778
C18U C45U	0.877
G19C U53C	0.0977
G19U G68A	0.793
G19U U49A	0.639
C18U U20G	0.28
G19U U69G	0.819
G19U C63G	0.249
G19U C63U	0.318
C18U G30A	0.282
G19C C33A	0.196
G19A U69G	0.249

Variant	self-cleavage
G19A U69C	0.333
G19C A60G	0.119
G19C A60U	0.128
U20G C32G	0.179
U21A C22U	0.325
U20A C27A	0.151
G19C C24G	0.135
G19C C24A	0.183
G19C C24U	0.204
U20A U62C	0.148
U20A U62G	0.0797
G19U C35U	0.262
G19U C35A	0.119
G19A U21A	0.143
G19A U21C	0.164
G19A U21G	0.14
G19A U67A	0.147
U20G U38G	0.123
U20C G65U	0.18
U20C G65C	0.126
U21A C24U	0.69
U20C U43A	0.227
U20C U43G	0.241
C18U U36G	0.19

Variant	self-cleavage
G19A A51G	0.172
G19A A51C	0.161
U20A C24G	0.0902
U20A A60U	0.117
U20G A59C	0.1
U20A U26A	0.0885
C18U C66G	0.341
U20C G30A	0.17
U20C G48C	0.229
C18U G58C	0.852
G19C G56U	0.123
U20C G50C	0.102
U20C G50A	0.174
C18U U55G	0.39
U21A A42U	0.941
U20C G56U	0.127
U20C G56C	0.203
U20C C24U	0.18
U20C C24G	0.146
U20C C24A	0.191
U20G G48C	0.224
U20A C63U	0.16
U20G U67A	0.223
U20G U67C	0.237

Variant	self-cleavage
G19C U64A	0.176
G19C U64G	0.139
C18U G50C	0.803
C18U G50U	0.906
U20C U62G	0.278
U20C U62A	0.133
U20G C29U	0.137
G19A U44C	0.16
G19C G47A	0.169
C18U U69A	0.944
U20G G31U	0.128
G19C C32G	0.207
G19U C34A	0.195
G19U C34G	0.232
G19U C34U	0.545
U20C A52G	0.161
G19A C22A	0.104
U20C C32U	0.248
U20C C32G	0.218
U20G C24A	0.128
U20C G37C	0.0963
U20G U36G	0.16
G19C G41U	0.129
G19A C32G	0.153

Variant	self-cleavage
G19A C32U	0.216
G19U G50U	0.509
G19A G31A	0.17
U20A C45G	0.149
U20A C45A	0.142
U20C U44C	0.123
U20C U44G	0.149
G19U C27U	0.158
C18U C35U	0.687
C18U C32G	0.213
C18U U53G	0.633
C18U U53A	0.632
U20A U49G	0.199
U20A U49C	0.275
G19C U49A	0.178
U20G G58C	0.099
U20A U67A	0.12
U20G G25C	0.227
G19A G68C	0.209
G19A G68A	0.18
U20G G65C	0.166
G19C U21G	0.161
U20G C27G	0.177
U20G C27A	0.105

Variant	self-cleavage
G19A G56U	0.155
C18U C33G	0.304
C18U C33A	0.278
G19A U61G	0.164
U20C C57U	0.194
U20C C57A	0.232
G19U A60C	0.18
U20C A23G	0.238
G19C A51U	0.157
G19C A51G	0.182
U20G U62C	0.244
G19A C34G	0.181
U20A G41A	0.166
U20A G41U	0.126
G19U A59C	0.131
U20C U21C	0.197
U20C U21G	0.211
G19A C33G	0.172
G19U U44C	0.232
C18U G65U	0.245
C18U G41A	0.331
C18U G41C	0.211
C18U G41U	0.44
G19A A60G	0.161

Variant	self-cleavage
G19C G25A	0.101
G19C G25U	0.145
G19A U46A	0.155
U20C C54A	0.156
G19A G37A	0.142
G19A G37C	0.128
U20G G50U	0.239
U20A A42U	0.133
G19A C63U	0.116
U20A U36A	0.158
U20G C57A	0.124
U20G C57G	0.181
C18U C22A	0.0833
G19C G30U	0.157
C18U A60C	0.288
C18U A60U	0.318
C18U U49A	0.914
C18U U49C	0.864
G19U C66U	0.382
C18U G19A	0.144
U20G G37U	0.182
G19A U43C	0.116
G19A U43A	0.108
G19C C27A	0.135

Variant	self-cleavage
G19U C29U	0.117
G19U A51C	0.432
G19U A23G	0.262
G19U C32U	0.55
G19A U64A	0.104
G19A U64G	0.12
U20A U38C	0.107
U20A U38A	0.188
G19U G47A	0.655
G19U G47C	0.677
G19A C35U	0.188
G19A C35A	0.181
G19U G58C	0.443
G19C A23G	0.11
G19C U38A	0.218
G19C U38C	0.135
G19C C35U	0.163
C18U U67G	0.922
C18U G48A	0.948
U20C U61G	0.226
C18U G37U	0.198
U20A G65A	0.156
